T1: HTRA4, P83105
T1 sequence (P83105 378-476, limits assumed, looked up): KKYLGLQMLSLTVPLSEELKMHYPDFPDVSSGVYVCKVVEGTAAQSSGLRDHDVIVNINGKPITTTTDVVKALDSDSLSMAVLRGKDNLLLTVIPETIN

T2: MPP6, Q9NZW5
T2 sequence (Q9NZW5 125-219, limits assumed, looked up): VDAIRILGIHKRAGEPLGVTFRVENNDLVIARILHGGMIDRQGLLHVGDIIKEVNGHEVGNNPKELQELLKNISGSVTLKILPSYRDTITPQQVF

T3: RAPGEF6, Q8TEU7
T3 sequence (Q8TEU7 525-625, limits assumed, looked up): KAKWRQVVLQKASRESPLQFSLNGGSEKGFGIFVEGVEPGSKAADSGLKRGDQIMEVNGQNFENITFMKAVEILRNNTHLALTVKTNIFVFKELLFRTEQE

T4: RADIL, Q96JH8
T4 sequence (Q96JH8 971-1071, limits assumed, looked up): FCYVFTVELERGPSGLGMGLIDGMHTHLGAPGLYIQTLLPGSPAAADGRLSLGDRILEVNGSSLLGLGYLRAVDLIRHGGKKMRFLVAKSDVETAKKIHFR

T5: TIAM2, Q8IVF5
T5 sequence (Q8IVF5 885-986, limits assumed, looked up): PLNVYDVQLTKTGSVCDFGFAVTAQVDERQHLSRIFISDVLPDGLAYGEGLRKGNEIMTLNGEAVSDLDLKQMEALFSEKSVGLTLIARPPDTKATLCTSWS

T6: SNTG1, Q9NSN8
T6 sequence (Q9NSN8 52-150, limits assumed, looked up): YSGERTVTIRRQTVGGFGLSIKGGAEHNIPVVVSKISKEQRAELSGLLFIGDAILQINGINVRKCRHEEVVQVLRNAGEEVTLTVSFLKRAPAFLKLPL

T7: GRIP1_7, Q9Y3R0
T7 sequence (Q9Y3R0 999-1096, limits assumed, looked up): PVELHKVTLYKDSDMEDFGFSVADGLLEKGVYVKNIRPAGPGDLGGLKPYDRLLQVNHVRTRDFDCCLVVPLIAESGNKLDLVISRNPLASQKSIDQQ

T8: SNTB1, Q13884
T8 sequence (Q13884 107-205, limits assumed, looked up): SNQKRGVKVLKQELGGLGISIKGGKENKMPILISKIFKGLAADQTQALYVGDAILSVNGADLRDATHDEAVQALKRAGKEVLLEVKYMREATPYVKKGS

T9: PDZD2_2, O15018
T9 sequence (O15018 329-429, limits assumed, looked up): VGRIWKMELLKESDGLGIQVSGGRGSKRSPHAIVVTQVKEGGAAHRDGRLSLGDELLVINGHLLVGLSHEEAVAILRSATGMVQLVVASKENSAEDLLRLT

T10: APBA3_1, O96018
T10 sequence (O96018 389-490, limits assumed, looked up): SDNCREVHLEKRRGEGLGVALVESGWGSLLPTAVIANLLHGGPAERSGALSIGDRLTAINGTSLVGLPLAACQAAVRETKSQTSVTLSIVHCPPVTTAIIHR

T11: APBA2_1, Q99767
T11 sequence (Q99767 563-664, limits assumed, looked up): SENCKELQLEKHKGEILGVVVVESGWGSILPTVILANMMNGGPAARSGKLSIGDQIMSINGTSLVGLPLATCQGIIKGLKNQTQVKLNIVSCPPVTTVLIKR

T12: LNX2_3, Q8N448
T12 sequence (Q8N448 463-564, limits assumed, looked up): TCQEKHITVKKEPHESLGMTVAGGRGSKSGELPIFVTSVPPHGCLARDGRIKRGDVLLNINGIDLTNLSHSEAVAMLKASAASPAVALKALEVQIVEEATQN


The binders below were run against GRIP2_5, Q9C0E4 (assay: holdup assay). Conditions: plain residues with an end cap or a label only (N-terminal biotin on a linker: ado-ado).
Chain of GRIP2_5, Q9C0E4 (Q9C0E4 544-642): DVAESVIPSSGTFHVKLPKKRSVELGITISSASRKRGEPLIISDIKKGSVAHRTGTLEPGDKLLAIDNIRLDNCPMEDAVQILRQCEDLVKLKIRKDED
Parameters: key: below the threshold = too weak to quantify, mostly under pKd 3.1 to 4
QMNQTLPVQV [EPHB3, P54753] was tested, and the pKd was “below the threshold”.
In the case of QSLNRMEYIV [JAG1, P78504], the pKd is reported as “below the threshold”.

The binders below were run against T1, HTRA4, P83105 (assay: holdup assay). Conditions: plain residues with an end cap or a label only (N-terminal biotin on a linker: ado-ado).
Parameters: key: below the threshold = too weak to quantify, mostly under pKd 3.1 to 4
Binder QMNQTLPVQV [EPHB3, P54753] has a pKd of 4.36.
In the case of QSLNRMEYIV [JAG1, P78504], the pKd is reported as “below the threshold”.

These binders were tested against T2, MPP6, Q9NZW5 (assay: holdup assay). Conditions: plain residues with an end cap or a label only (N-terminal biotin on a linker: ado-ado).
Parameters: key: below the threshold = too weak to quantify, mostly under pKd 3.1 to 4
With QMNQTLPVQV [EPHB3, P54753] the pKd was “below the threshold”.
For QSLNRMEYIV [JAG1, P78504], the pKd was 3.9.

The binders below were run against DLG4_1, P78352 (assay: holdup assay). Conditions: plain residues with an end cap or a label only (N-terminal biotin on a linker: ado-ado).
Chain of DLG4_1, P78352 (P78352 62-152): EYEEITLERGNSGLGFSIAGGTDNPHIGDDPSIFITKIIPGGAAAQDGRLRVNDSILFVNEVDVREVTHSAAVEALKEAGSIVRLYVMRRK
Parameters: key: below the threshold = too weak to quantify, mostly under pKd 3.1 to 4
QMNQTLPVQV [EPHB3, P54753] was tested, and the pKd was “below the threshold”.
QSLNRMEYIV [JAG1, P78504] was tested, and the pKd was “below the threshold”.

These binders were tested against T3, RAPGEF6, Q8TEU7 (assay: holdup assay). Conditions: plain residues with an end cap or a label only (N-terminal biotin on a linker: ado-ado).
Parameters: key: below the threshold = too weak to quantify, mostly under pKd 3.1 to 4
For QMNQTLPVQV [EPHB3, P54753], the pKd was “below the threshold”.
For QSLNRMEYIV [JAG1, P78504], the pKd was “below the threshold”.

These binders were tested against FRMPD2_2, Q68DX3 (assay: holdup assay). Conditions: plain residues with an end cap or a label only (N-terminal biotin on a linker: ado-ado).
Chain of FRMPD2_2, Q68DX3 (Q68DX3 944-1038): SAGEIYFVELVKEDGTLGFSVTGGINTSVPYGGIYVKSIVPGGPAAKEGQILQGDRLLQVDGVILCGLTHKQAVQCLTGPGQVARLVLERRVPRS
Parameters: key: below the threshold = too weak to quantify, mostly under pKd 3.1 to 4
With QMNQTLPVQV [EPHB3, P54753] the pKd was “below the threshold”.
QSLNRMEYIV [JAG1, P78504] was tested, and the pKd was “below the threshold”.

Each binder was assayed against T4, RADIL, Q96JH8 (assay: holdup assay). Conditions: plain residues with an end cap or a label only (N-terminal biotin on a linker: ado-ado).
Parameters: key: below the threshold = too weak to quantify, mostly under pKd 3.1 to 4
QMNQTLPVQV [EPHB3, P54753] showed a pKd of 4.44.
For QSLNRMEYIV [JAG1, P78504], the pKd was 4.82.

The binders below were run against LIMK2, P53671 (assay: holdup assay). Conditions: plain residues with an end cap or a label only (N-terminal biotin on a linker: ado-ado).
Chain of LIMK2, P53671 (P53671 143-248): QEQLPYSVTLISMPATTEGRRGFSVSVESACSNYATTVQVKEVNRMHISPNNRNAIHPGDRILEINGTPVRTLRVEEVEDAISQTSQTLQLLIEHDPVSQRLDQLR
Parameters: key: below the threshold = too weak to quantify, mostly under pKd 3.1 to 4
With QMNQTLPVQV [EPHB3, P54753] the pKd was “below the threshold”.
In the case of QSLNRMEYIV [JAG1, P78504], the pKd is reported as “below the threshold”.

What follows are binders tested against GRIP2_6, Q9C0E4 (assay: holdup assay). Conditions: plain residues with an end cap or a label only (N-terminal biotin on a linker: ado-ado).
Chain of GRIP2_6, Q9C0E4 (Q9C0E4 648-740): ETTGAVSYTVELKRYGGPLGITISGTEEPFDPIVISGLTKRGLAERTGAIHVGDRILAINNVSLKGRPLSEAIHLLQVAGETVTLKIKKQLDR
Parameters: key: below the threshold = too weak to quantify, mostly under pKd 3.1 to 4
QMNQTLPVQV [EPHB3, P54753] was tested, and the pKd was “below the threshold”.
With QSLNRMEYIV [JAG1, P78504] the pKd was 4.61.

Each binder was assayed against T5, TIAM2, Q8IVF5 (assay: holdup assay). Conditions: plain residues with an end cap or a label only (N-terminal biotin on a linker: ado-ado).
Parameters: key: below the threshold = too weak to quantify, mostly under pKd 3.1 to 4
In the case of QMNQTLPVQV [EPHB3, P54753], the pKd is reported as “below the threshold”.
For QSLNRMEYIV [JAG1, P78504], the pKd was 4.18.

Each binder was assayed against T6, SNTG1, Q9NSN8 (assay: holdup assay). Conditions: plain residues with an end cap or a label only (N-terminal biotin on a linker: ado-ado).
Parameters: key: below the threshold = too weak to quantify, mostly under pKd 3.1 to 4
With QMNQTLPVQV [EPHB3, P54753] the pKd was “below the threshold”.
QSLNRMEYIV [JAG1, P78504] was tested, and the pKd was “below the threshold”.

What follows are binders tested against PDLIM1, O00151 (assay: holdup assay). Conditions: plain residues with an end cap or a label only (N-terminal biotin on a linker: ado-ado).
Chain of PDLIM1, O00151 (O00151 1-87): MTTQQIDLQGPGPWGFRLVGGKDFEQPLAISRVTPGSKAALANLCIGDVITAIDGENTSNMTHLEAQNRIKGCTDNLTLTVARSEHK
Parameters: key: below the threshold = too weak to quantify, mostly under pKd 3.1 to 4
In the case of QMNQTLPVQV [EPHB3, P54753], the pKd is reported as “below the threshold”.
QSLNRMEYIV [JAG1, P78504] was tested, and the pKd was “below the threshold”.

The binders below were run against T7, GRIP1_7, Q9Y3R0 (assay: holdup assay). Conditions: plain residues with an end cap or a label only (N-terminal biotin on a linker: ado-ado).
Parameters: key: below the threshold = too weak to quantify, mostly under pKd 3.1 to 4
QMNQTLPVQV [EPHB3, P54753] was tested, and the pKd was “below the threshold”.
With QSLNRMEYIV [JAG1, P78504] the pKd was “below the threshold”.

Each binder was assayed against Inadl_3, Q8NI35 (assay: holdup assay). Conditions: plain residues with an end cap or a label only (N-terminal biotin on a linker: ado-ado).
Chain of Inadl_3, Q8NI35 (Q8NI35 359-469): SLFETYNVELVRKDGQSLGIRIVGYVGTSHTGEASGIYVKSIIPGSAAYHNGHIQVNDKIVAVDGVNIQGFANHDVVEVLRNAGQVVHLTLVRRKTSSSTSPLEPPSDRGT
Parameters: key: below the threshold = too weak to quantify, mostly under pKd 3.1 to 4
QMNQTLPVQV [EPHB3, P54753] gave a pKd of 3.55.
In the case of QSLNRMEYIV [JAG1, P78504], the pKd is reported as 5.17.

What follows are binders tested against T8, SNTB1, Q13884 (assay: holdup assay). Conditions: plain residues with an end cap or a label only (N-terminal biotin on a linker: ado-ado).
Parameters: key: below the threshold = too weak to quantify, mostly under pKd 3.1 to 4
In the case of QMNQTLPVQV [EPHB3, P54753], the pKd is reported as “below the threshold”.
In the case of QSLNRMEYIV [JAG1, P78504], the pKd is reported as “below the threshold”.

The binders below were run against T9, PDZD2_2, O15018 (assay: holdup assay). Conditions: plain residues with an end cap or a label only (N-terminal biotin on a linker: ado-ado).
Parameters: key: below the threshold = too weak to quantify, mostly under pKd 3.1 to 4
For QMNQTLPVQV [EPHB3, P54753], the pKd was “below the threshold”.
QSLNRMEYIV [JAG1, P78504] was tested, and the pKd was “below the threshold”.

What follows are binders tested against DLG5_1, Q8TDM6 (assay: holdup assay). Conditions: plain residues with an end cap or a label only (N-terminal biotin on a linker: ado-ado).
Chain of DLG5_1, Q8TDM6 (Q8TDM6 617-713): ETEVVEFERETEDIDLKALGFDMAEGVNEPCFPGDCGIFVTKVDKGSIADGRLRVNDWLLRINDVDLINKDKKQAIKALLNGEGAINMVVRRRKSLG
Parameters: key: below the threshold = too weak to quantify, mostly under pKd 3.1 to 4
With QMNQTLPVQV [EPHB3, P54753] the pKd was “below the threshold”.
In the case of QSLNRMEYIV [JAG1, P78504], the pKd is reported as “below the threshold”.

These binders were tested against T10, APBA3_1, O96018 (assay: holdup assay). Conditions: plain residues with an end cap or a label only (N-terminal biotin on a linker: ado-ado).
Parameters: key: below the threshold = too weak to quantify, mostly under pKd 3.1 to 4
In the case of QMNQTLPVQV [EPHB3, P54753], the pKd is reported as “below the threshold”.
For QSLNRMEYIV [JAG1, P78504], the pKd was “below the threshold”.

The binders below were run against GRIP2_4, Q9C0E4 (assay: holdup assay). Conditions: plain residues with an end cap or a label only (N-terminal biotin on a linker: ado-ado).
Chain of GRIP2_4, Q9C0E4 (Q9C0E4 446-548): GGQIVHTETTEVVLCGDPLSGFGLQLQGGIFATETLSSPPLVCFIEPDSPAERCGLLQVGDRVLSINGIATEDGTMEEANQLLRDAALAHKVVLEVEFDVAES
Parameters: key: below the threshold = too weak to quantify, mostly under pKd 3.1 to 4
QMNQTLPVQV [EPHB3, P54753] was tested, and the pKd was “below the threshold”.
With QSLNRMEYIV [JAG1, P78504] the pKd was “below the threshold”.

The binders below were run against T11, APBA2_1, Q99767 (assay: holdup assay). Conditions: plain residues with an end cap or a label only (N-terminal biotin on a linker: ado-ado).
Parameters: key: below the threshold = too weak to quantify, mostly under pKd 3.1 to 4
With QMNQTLPVQV [EPHB3, P54753] the pKd was “below the threshold”.
For QSLNRMEYIV [JAG1, P78504], the pKd was “below the threshold”.

What follows are binders tested against TJP1_3, Q07157 (assay: holdup assay). Conditions: plain residues with an end cap or a label only (N-terminal biotin on a linker: ado-ado).
Chain of TJP1_3, Q07157 (Q07157 416-512): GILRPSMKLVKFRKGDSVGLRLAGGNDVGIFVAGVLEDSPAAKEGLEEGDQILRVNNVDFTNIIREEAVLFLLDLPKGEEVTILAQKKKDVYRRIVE
Parameters: key: below the threshold = too weak to quantify, mostly under pKd 3.1 to 4
In the case of QMNQTLPVQV [EPHB3, P54753], the pKd is reported as “below the threshold”.
For QSLNRMEYIV [JAG1, P78504], the pKd was “below the threshold”.

These binders were tested against DLG1_1, Q12959 (assay: holdup assay). Conditions: plain residues with an end cap or a label only (N-terminal biotin on a linker: ado-ado).
Parameters: key: below the threshold = too weak to quantify, mostly under pKd 3.1 to 4
QMNQTLPVQV [EPHB3, P54753] was tested, and the pKd was “below the threshold”.
QSLNRMEYIV [JAG1, P78504] was tested, and the pKd was “below the threshold”.

These binders were tested against T12, LNX2_3, Q8N448 (assay: holdup assay). Conditions: plain residues with an end cap or a label only (N-terminal biotin on a linker: ado-ado).
Parameters: key: below the threshold = too weak to quantify, mostly under pKd 3.1 to 4
For QMNQTLPVQV [EPHB3, P54753], the pKd was “below the threshold”.
With QSLNRMEYIV [JAG1, P78504] the pKd was “below the threshold”.

These binders were tested against Inadl_5, Q8NI35 (assay: holdup assay). Conditions: plain residues with an end cap or a label only (N-terminal biotin on a linker: ado-ado).
Chain of Inadl_5, Q8NI35 (Q8NI35 673-780): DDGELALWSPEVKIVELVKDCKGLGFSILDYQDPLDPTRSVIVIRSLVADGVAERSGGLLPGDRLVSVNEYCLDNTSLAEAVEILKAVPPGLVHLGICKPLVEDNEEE
Parameters: key: below the threshold = too weak to quantify, mostly under pKd 3.1 to 4
Binder QMNQTLPVQV [EPHB3, P54753] has a pKd of 4.1.
Work on QSLNRMEYIV [JAG1, P78504] yielded a pKd of 4.86.

What follows are binders tested against Inadl_2, Q8NI35 (assay: holdup assay). Conditions: plain residues with an end cap or a label only (N-terminal biotin on a linker: ado-ado).
Chain of Inadl_2, Q8NI35 (Q8NI35 238-335): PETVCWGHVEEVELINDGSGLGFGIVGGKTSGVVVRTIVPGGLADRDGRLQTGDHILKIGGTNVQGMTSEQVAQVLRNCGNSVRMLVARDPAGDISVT
Parameters: key: below the threshold = too weak to quantify, mostly under pKd 3.1 to 4
With QMNQTLPVQV [EPHB3, P54753] the pKd was “below the threshold”.
QSLNRMEYIV [JAG1, P78504] was tested, and the pKd was 4.77.

Reference: paper PMC9482650, “Quantitative fragmentomics allow affinity mapping of interactomes” (Nature Communications, 2022)
